We go through seven substances from paper PMC9024677.

Assay [1] concerns the target human cardiac α-actin mutant p.R312H (human). Description: pyrene-actin polymerization assay; 5 μM actin with pyrene-labelled skeletal muscle actin (20:1) in G-buffer; polymerization started with 2 mM MgCl2 (and 0.05 M KCl); fluorescence increase followed over time.
For assay [2] the target is unchanged. Description: other fluorescence titration; critical concentration of polymerization (monomer to filament): 0.1 to 10 μM c-actin with 5% pyrene-actin, 2 mM MgCl2 and 0.05 M KCl overnight; steady-state fluorescence against actin concentration.
Assay [3] concerns the target human cardiac α-actin mutant p.E361G (human). Description: pyrene-actin polymerization assay; 5 μM actin with pyrene-labelled skeletal muscle actin (20:1) in G-buffer; polymerization started with 2 mM MgCl2 (and 0.05 M KCl); fluorescence increase followed over time.
For assay [4] the target is unchanged. The assay can be described thus: other fluorescence titration; critical concentration of polymerization (monomer to filament): 0.1 to 10 μM c-actin with 5% pyrene-actin, 2 mM MgCl2 and 0.05 M KCl overnight; steady-state fluorescence against actin concentration.
Assay [5] has as its target human cardiac α-actin mutant p.A295S (human). Description: pyrene-actin polymerization assay; 5 μM actin with pyrene-labelled skeletal muscle actin (20:1) in G-buffer; polymerization started with 2 mM MgCl2 (and 0.05 M KCl); fluorescence increase followed over time.
Assay [6] has the same target. The assay can be described thus: other fluorescence titration; critical concentration of polymerization (monomer to filament): 0.1 to 10 μM c-actin with 5% pyrene-actin, 2 mM MgCl2 and 0.05 M KCl overnight; steady-state fluorescence against actin concentration.
Assay [7] has as its target deoxyribonuclease I (DNase I) (bovine) (UniProt P00639).
Assay [8] addresses bovine cardiac α-actin (bovine) (UniProt Q3ZC07). Description: pyrene-actin polymerization assay; 5 μM actin with pyrene-labelled skeletal muscle actin (20:1) in G-buffer; polymerization started with 2 mM MgCl2 (and 0.05 M KCl); fluorescence increase followed over time.
The target is the same in assay [9]. Description: other fluorescence titration; critical concentration of polymerization (monomer to filament): 0.1 to 10 μM c-actin with 5% pyrene-actin, 2 mM MgCl2 and 0.05 M KCl overnight; steady-state fluorescence against actin concentration.
The target in assay [10] is human cardiac α-actin variant p.R312K (human). Description: pyrene-actin polymerization assay; 5 μM actin with pyrene-labelled skeletal muscle actin (20:1) in G-buffer; polymerization started with 2 mM MgCl2 (and 0.05 M KCl); fluorescence increase followed over time.
The target is the same in assay [11]. The assay can be described thus: other fluorescence titration; critical concentration of polymerization (monomer to filament): 0.1 to 10 μM c-actin with 5% pyrene-actin, 2 mM MgCl2 and 0.05 M KCl overnight; steady-state fluorescence against actin concentration.
The target in assay [12] is human wild type cardiac α-actin (recombinant) (human) (UniProt P68032). The assay can be described thus: pyrene-actin polymerization assay; 5 μM actin with pyrene-labelled skeletal muscle actin (20:1) in G-buffer; polymerization started with 2 mM MgCl2 (and 0.05 M KCl); fluorescence increase followed over time.
Assay [13] shares this target. The assay can be described thus: other fluorescence titration; critical concentration of polymerization (monomer to filament): 0.1 to 10 μM c-actin with 5% pyrene-actin, 2 mM MgCl2 and 0.05 M KCl overnight; steady-state fluorescence against actin concentration.
In assay [14] the target is bovine cardiac α-actin (bovine) (UniProt Q3ZC07).
In assay [15] the target is human cardiac α-actin mutant p.E361G (human).
Assay [16] concerns the target human cardiac α-actin mutant p.R312H (human).
In assay [17] the target is human wild type cardiac α-actin (recombinant) (human) (UniProt P68032).
Assay [18] has as its target human cardiac α-actin mutant p.A295S (human).

Sequence of deoxyribonuclease I (DNase I) (bovine) (P00639 23-282): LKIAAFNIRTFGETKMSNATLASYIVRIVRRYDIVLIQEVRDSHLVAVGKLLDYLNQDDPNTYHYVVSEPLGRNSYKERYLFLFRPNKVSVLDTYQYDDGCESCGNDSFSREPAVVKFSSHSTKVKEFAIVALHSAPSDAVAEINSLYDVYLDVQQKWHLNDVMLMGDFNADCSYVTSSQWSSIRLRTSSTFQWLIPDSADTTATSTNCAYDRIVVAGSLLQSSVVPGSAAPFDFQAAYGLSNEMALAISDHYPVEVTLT

“human cardiac α-actin mutant p.R312H (natural protein)” yielded a half time of polymerization (t 1/2) in assay [1] of 10.8 min. Besides, the critical concentration of polymerization (Cc) in assay [2] was determined as 0.7 µM.
In turn, “human cardiac α-actin mutant p.E361G (natural protein)” gave a half time of polymerization (t 1/2) in assay [3] of 1.6 min. Moreover, in assay [4], the critical concentration of polymerization (Cc) worked out at 0.2 µM.
In assay [5], “human cardiac α-actin mutant p.A295S (natural protein)” yielded a half time of polymerization (t 1/2) of 8.5 min. For the same substance, the critical concentration of polymerization (Cc) in assay [6] came to 0.4 µM. In [7], this substance showed an inhibition of DNase I activity (hyperchromicity assay), 3.2 μM DNase I pre-incubated with zero to 6.4 μM G-actin; inhibitory capacity against wt c-α-actin of 33%.
For the substance “bovine cardiac α-actin (from UniProt Q3ZC07 1-377) (natural protein)”, in assay [8], the half time of polymerization (t 1/2) turned out to be 2.7 min. In assay [9], this substance showed a critical concentration of polymerization (Cc) of 0.21 µM.
In turn, “human cardiac α-actin variant p.R312K (natural protein)” registered a half time of polymerization (t 1/2) in assay [10] of 3.08 min. Besides, the critical concentration of polymerization (Cc) in assay [11] was found to be 0.21 µM.
As for “human wild type cardiac α-actin (recombinant) (from UniProt P68032 1-377) (natural protein)”, the half time of polymerization (t 1/2) in assay [12] worked out at 2.5 min. For the same substance, the critical concentration of polymerization (Cc) in [13] worked out at 0.2 µM. Further, the inhibition of DNase I activity (hyperchromicity assay), 3.2 μM DNase I pre-incubated with zero to 6.4 μM G-actin; concentration for complete inhibition against skeletal muscle actin in assay [7] (scale: fold higher concentration than skeletal muscle actin) is 3.
For “rabbit skeletal muscle myosin subfragment-1 (domain or fragment)”, the apparent KM of the myosin-S1 ATPase stimulation by F-c-actin (double reciprocal plot), pCa 4.3, without cTm/cTn in assay [14] was 0.081 µM; in [15] it was 0.075 µM; in assay [16], 0.096 µM; in assay [17], 0.165 µM; in assay [18] it was 0.966 µM. The apparent KM of the myosin-S1 ATPase stimulation by F-c-actin decorated with cTm/cTn (6:1:1), pCa 4.3 amounted to 0.173 µM in assay [15], 0.0243 µM in [16], 0.217 µM in [17] and 3.31 µM in assay [18].
